Experimental data as given in patent US20240043507A1 (RQ BIOTECHNOLOGY, published 2024).
Numbering of substitutions follows the chain as printed.

B1: antibody 40 (antibody, V domains shown)
VH: QVQLVESGGGLVQPGGSLRLSCAVSGFTVSRNYMSWVRQAPGKGLEWVSLIYSGGSTFYADSVKGRFTISRDNSKNTLYLQMNSLRAEDTAVYYCARDLFHRSGYHDYWGQGTLVTVSS
VL: not shown
notes: also called mAb 40
B2: antibody 58 (antibody, V domains shown)
VH: QVQLVESGGGLVQPGRSLRLSCAASGFTFDDYAMHWVRQPPGKGLEWVSGVSWNSGTIGYADSVKGRFIISRDNAKNSLYLQMNSLKAEDTALYYCAREVGGTFGVLISREGGLDYWGQGTLVTVSS
VL: SYELTQPPSVSVAPGQTARITCGGNTIGSKSVHWYQQRPGQAPVLVVYDDSDRPSGIPERFSGSNSGNTATLTISRVEAGDEADYYCQVWDSSSDRVVFGGGTKLTVL
notes: also called mAb 58
B3: Fab 316 (Fab, V domains shown)
VH: not shown
VL: QAVLTQPPSASGSPGQSVTISCTGTSSDVGGYNYVSWYQQHPGKAPKLMIYEVSKRPSGVPDRFSGSKSGNTASLTVSGLQAEDEADYYCSSYAGSNHWVFGGGTKLTVL
notes: also called 316 Fab (glycosylated)
B4: Fab 318 (Fab, V domains shown)
VH: QVQLVQSGPEVKKPGTSVKVSCKASGFTLTSSAMQWVRQARGQRLEWIGWIVVGSGNTNYAQKFQERVTITRDMSTSTAYMELSSLRSEDTAVYYCAAGRGYNSDFDYWGQGTLVTVSS
VL: AIRMTQSPGTLSLSPGERATLSCRASQSVSSSYLAWYQQRPGQAPRLLIYGTSSRATGIPDRFSGSGSGTDFTLTISRLEPEDFAVYYCQQYGYSVYTFGQGTKVDIK
B5: Fab 222 (Fab, V domains shown)
VH: EVQLVESGGGLIQPGGSLRLSCAASGLTVSSNYMSWVRQAPGKGLEWVSVIYSGGSTFYADSVKGRFTISRDNSKNTLYLQMNSLGAEDTAVYYCARGEGSPGNWFDPWGQGTLVTVSS
VL: DVVMTQSPGTLSLSPGERATLSCRASQSVPSSYLAWYQQKPGQAPRLLIYGASTRATGIPDRFSGSGSGTDFTLTISRLEPEDFAVYYCQHYDTSPRFGGGTKVDIK
notes: Fab
B6: Fab 58 (Fab, V domains shown)
VH: B2 VH
VL: B2 VL
B7: Fab 278 (Fab, V domains shown)
VH: QVQLVQSGAEVKKPGASVKVSCKASGYIFIRYGISWVRQAPGQGLEWMGWISANNGYTNYAQKLQGRVTMTTDTSTSTAYMELRSLRSDDTAVYYCARDGGILTGYLDYFDHWGQGTLVTVSS
VL: DIQMTQSPSSLSASVGDRLTITCRASQSIASYLNWYQQKPGKAPKLLIYAASSLQSGVPSRFSGSGSGTDFTLTISSLQPEDFATYHCQQSYSTLGITFGPGTKVDIK
B8: Fab 175 (Fab, V domains shown)
VH: EVQLVESGGGLIQPGGSLRLSCAASGLTVSRNYMSWVRQAPGKGLEWVSLIYSGGSTYYADSVKGRFTISRDNSKNTLYLQMNSLRAEDTAVYYCARDLRGEVWGQGTMVTVSS
VL: not shown
B9: Fab 269 (Fab, V domains shown)
VH: QVQLVESGGGLIQPGGSLRLSCAASGLTVNRNYMSWIRQAPGKGLEWVSVIYSGGSTFYADSVKGRFTISRDNSKNTLSLQMNSLRAEDTAIYYCARDFYEGSFDIWGQGTMVTVSS
VL: AIQLTQSPSFLSASIGDRVTITCRASQGISSYLAWYQQKPGKAPKLLIYAASTLQSGVPSRFSGSGSGTEFTLTISSLQPEDFASYYCQQLNSYPAPVFGPGTKVDIK
notes: also called 269 Fab; COVOX-269 Fab
B10: Fab 165 (Fab, V domains shown)
VH: QVQLVQSGPEVKKPGTSVKVSCKASGFTFTSSAVQWVRQARGQRLEWIGWIVVGSGNTNYAQKFQESVTITRDMSTSTAYMELSSLRSEDTAVYYCAAPHCIGGSCHDAFDIWGQGTMVTVSS
VL: DIVMTQSPGTLSLSPGERATLSCRASQSVRSSYLAWYQQKPGQAPRLLIYGASRRGTGIPDRFSGSGSGTDFTLTISRLEPEDFAVYYCQQYGSSPWTFGQGTKVEIK
B11: Fab 281 (Fab, V domains shown)
VH: QVQLVESGGGLVQPGGSLRLSCAASGFPFSIYWMSWVRQAPGKGLEWVANIKQDGSEKYYVDSVKGRFTISRDNAKNSLYLHMNSLRGEDTAVYYCASRYYDFRPEAWFDYWGQGTLVTVSS
VL: not shown
B12: Fab 158 (Fab, V domains shown)
VH: EVQLLESGGDLIQPGGSLRLSCAASGVTVSSNYMSWVRQAPGKGLEWVSIIYPGGSTFYADSVKGRFTISRDNSKNTLYLQMHSLRAEDTAVYYCARDLGSGDMDVWGKGTTVTVSS
VL: DIVMTQSPSFLSASVGDRVTITCRASQGISSYLAWYQQKPGKAPKLLIQAASTLQSGVPSRFSGSGSGTEFTLTISSLQPEDFATYYCQQLNSYRYTFGQGTKVEIK
B13: Fab 45 (Fab, V domains shown)
VH: QVQLVESGGGVVQPGRSLRLSCAASGFTFSTYAMHWVRQAPGKGLEWVAVLSYDGSNKYYADSVKGRFTISRDNSKNTLYLQMNSLRAEDTAVYYCAKGGSYAYYYYMDVWGKGTTVTVSS
VL: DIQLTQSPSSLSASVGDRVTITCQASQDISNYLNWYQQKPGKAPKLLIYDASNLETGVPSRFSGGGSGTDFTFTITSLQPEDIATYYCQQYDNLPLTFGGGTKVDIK
B14: antibody 316 (antibody, V domains shown)
VH: not shown
VL: B3 VL
B15: antibody 398 (antibody, V domains shown)
VH: QVQLVESGGGLVQPGGSLRLSCAASGFTVSSNYMTWVRQAPGKGLEWVSVIYSGGSTYYADSVKGRFTISRDNSKNTLYLQMNSLRADDTAVYYCARDSTADYDFWSGYYVGAFHIWGQGTMVTVSS
VL: B3 VL with A2T, P8A, A10V, V18I, S54T, H98N
B16: antibody 40 (antibody, V domains shown)
VH: B1 VH
VL: not shown
B17: antibody 318 (antibody, V domains shown)
VH: B4 VH
VL: B4 VL
B18: antibody 222 (antibody, V domains shown)
VH: B5 VH
VL: B5 VL
B19: antibody 58 (antibody, V domains shown)
VH: B2 VH
VL: B2 VL
B20: antibody 175 (antibody, V domains shown)
VH: B8 VH
VL: not shown
B21: antibody 269 (antibody, V domains shown)
VH: B9 VH
VL: B9 VL
B22: antibody 253H165L (antibody, V domains shown)
VH: not shown
VL: B10 VL
B23: antibody 281 (antibody, V domains shown)
VH: B11 VH
VL: not shown
B24: antibody 158 (antibody, V domains shown)
VH: B12 VH
VL: B12 VL
B25: antibody 88 (antibody, V domains shown)
VH: QLQLQESGPGLVKPSQTLSLTCTVSGGSISSGSYNWTWIRQPAGKGLEWIGRIYNSGSTNYNPSLKSRVTISVDTSKNQLSLKVRSVTAADTAVYYCARHCSGGTCYPKYYYGMDVWGQGTTVTVSS
VL: QSALTQPPSVSEAPRQRVTISCSGSSSNIGNNAVNWYQQFPGKAPKLLIYYDDLLPSGVSDRFSGSKSGTSASLAISGVQSEDEADYYCAAWDDSLNVVVFGGGTKLTVL

Target: T1, SARS-CoV-2 spike receptor binding domain, native (SARS-CoV-2, UniProt P0DTC2 330-532)
T1 construct: range 330-532
Assay: BLI, RBD on AR2G biosensor, mAb as analyte

Q: For B1, which Kd is on record?
A: The Kd was 1.33 nM.

Q: Which Kd does the source give for B2 here?
A: Its Kd is 1.46 nM.

Target: T2, SARS-CoV-2 receptor binding domain (RBD), native (SARS-CoV-2, UniProt P0DTC2 330-532)
T2 construct: range 330-532
Assay: BLI, Fab and RBD

Q: With B3 as the binder, how does the Kd read?
A: Its Kd is 2 nM.

Q: B4 was tested. Which Kd did it give?
A: Its Kd is 7.6 nM.

Q: Which Kd does the source give for B5 here?
A: Its Kd is 3 nM.

Q: B6 was tested. Which Kd did it give?
A: The Kd was 3.4 nM.

Q: Which Kd does the source give for B7 here?
A: Its Kd is 3 nM.

Q: With B8 as the binder, how does the Kd read?
A: Its Kd is 2.4 nM.

Q: Which Kd does the source give for B9 here?
A: The Kd was 2.2 nM.

Q: How did the Kd turn out when B10 was run?
A: Its Kd is 4.8 nM.

Q: With B11 as the binder, how does the Kd read?
A: Its Kd is 1 nM.

Q: Which Kd does the source give for B12 here?
A: The Kd was 0.7 nM.

Q: For B13, which Kd is on record?
A: Its Kd is 5.9 nM.

Q: And the koff?
A: Its koff is 0.00046 s⁻¹.

Q: And the kon?
A: The kon was 78000 M⁻¹ s⁻¹.

Target: SARS-CoV-2 spike receptor binding domain (native RBD) (SARS-CoV-2, UniProt P0DTC2 330-532)
Assay: not given

Q: B14 was tested. Which Kd did it give?
A: The Kd was 1.5 nM.

Q: For B15, which Kd is on record?
A: The Kd was 1.02 nM.

Q: Which Kd does the source give for B16 here?
A: The Kd was 0.55 nM.

Q: For B17, which Kd is on record?
A: The Kd was 2.23 nM.

Q: How did the Kd turn out when B18 was run?
A: The Kd was 0.29 nM.

Q: How did the Kd turn out when B19 was run?
A: Its Kd is 0.3 nM.

Q: For B20, which Kd is on record?
A: The Kd was 0.97 nM.

Q: For B21, which Kd is on record?
A: The Kd was 1.59 nM.

Q: With B22 as the binder, how does the Kd read?
A: The Kd was 0.73 nM.

Q: How did the Kd turn out when B23 was run?
A: The Kd was 3.2 nM.

Q: For B24, which Kd is on record?
A: The Kd was 0.53 nM.

Q: With B25 as the binder, how does the Kd read?
A: Its Kd is 0.64 nM.
